Changes are numbered by the printed parent chain. Read-outs that look alike come from different tables or passages of the source. Blank lines part the entries; values can stand above or below the binder they belong to.
Assays:
human C5 [1] = target: T1, human C5 (human, UniProt P01031 19-673; P01031 678-1676); experiment: cross reactivity, capture ELISA with anti-C5 capture antibody, anti-His detection
T1 construct: Captured by an anti-C5 antibody in the ELISA

human C3d [2] = target: T2, human C3d (human, UniProt P01024 1002-1303); experiment: cross reactivity, ELISA on C3d, anti-His detection
T2 construct: domain: C3d
Procedure: In order to determine whether the anti-C3b antibodies described herein can bind to complement pathway components iC3b and C3c, the following steps were performed: Directly add iC3b(complement Technologies A115), C3d (complement Technologies A117), or C3c (complement Technologies A116), at 2 μg/ml in Carbonate Buffer onto Coat Maxisorp plate Nunc (442404) at 100 μl per well. Seal plates and incubate at 4° C. overnight. Aspirate plates and wash 3 times with PBS/0.5% Tween 20. Block plates with Diluent (PBS, 4% BSA Fraction V (Fisher ICN16006980), 0.1% Tween 20 (Sigma P1379), 0.1% Triton X-100 (Sigma P234729)) and incubate for 2 h at room temperature or overnight at 4° C. Then wash plates once with PBS/0.5% Tween 20. Dilute Fabs at 100 nM and subsequent dilutions (or higher concentration if needed) in diluent and plate 100 μl per well. Incubate at room temperature for 1 h. Wash plates 3 times with PBS/0.5% Tween 20. Add 100 μl/well of anti-Histidine-HRP monoclonal detection antibody at 1:400 in diluent and incubate at room temperature for 1 h. Then wash 4 times with PBS/0.5% Tween 20. Add 100 μl of TMB substrate (Pierce 34028) and incubate at room temperature for up to 5 min. Add 50 μl of Stop solution (2N Sulfuric Acid) to each well and read plate at 450 nm and correct for plastic reading at 570 nm.

[3] = target: T3, human complement C3b protein (human, UniProt P01024 23-667; P01024 749-1663); experiment: SPR (Biacore), C3b captured by anti-C3d antibody, Fab as analyte
T3 construct: Purified plasma C3b (Complement Technology, Quidel); Depending on the assay it was captured by an anti-C3d antibody, coated, biotinylated or coupled to beads; also called human C3b; huC3b

[4] = target: T4, cynomolgus complement C3b protein (cynomolgus monkey (Macaca fascicularis)); experiment: as above
T4 construct: also called cyno C3b; cynoC3b

[5] = target: T3, human complement C3b protein; experiment: bead proximity assay, C3b-acceptor beads; competitor biotinylated fB(D24G/N260D)
Procedure: (§1) For C3b-C3b and C3b-fP proximity, Fabs or IgGs respectively were pre-incubated with C3b-Acceptor beads (20 μg/ml) for 60 min at room temperature. C3b-Donor beads or fP-Donor beads (20 μg/ml) were then added, and the plate was incubated overnight at room temperature before reading. For C3b-fB and C3b-fH proximity, antibodies were pre-incubated with C3b-Acceptor beads (20 μg/ml) for 60 minutes at room temperature. Biotinylated fB(D24G/N260D) or fH were then added, and incubated for 60 minutes at room temperature. SA-Donor beads were then added (20 μg/ml) and the plate was incubated overnight at room temperature before reading. Plates were read on the BMG Pherastar (ex=680, em=520-620).

[6] = target: T3, human complement C3b protein; experiment: bead proximity assay, C3b-acceptor beads; competitor fP-donor beads
Procedure: as §1

[7] = target: T3, human complement C3b protein; experiment: cell-based or functional assay
[8] = target: T4, cynomolgus complement C3b protein; experiment: cell-based or functional assay
[9] = target: T3, human complement C3b protein; experiment: solution equilibrium titration (SET), ECL detection, Fab
[10] = target: T4, cynomolgus complement C3b protein; experiment: as above
[11] = target: T3, human complement C3b protein; experiment: bead proximity assay, C3b-acceptor beads; competitor biotinylated fH
Procedure: as §1

[12] = target: T3, human complement C3b protein; experiment: as above; remark: listed apart in the source
Procedure: (§2) In brief, purified C3b and fP were conjugated to unconjugated acceptor or donor beads (PerkinElmer) using AminoLink Reductant (Pierce) during a 48 h incubation at room temperature. Beads were quenched using Carboxymethoxylamine Hemihydrochloride (Aldrich), and purified by centrifugation at 13000 rpm and three washes with 0.1M TBST. Purified fB(D24G/N260D) and fH were biotinylated during a 30 min incubation with 20-fold molar excess of NHS-Chromogenic-biotin (Pierce) at room temperature, and purified using Zeba 0.5 ml desalting columns (Pierce).
as §1

[13] = target: T3, human complement C3b protein; experiment: SPR (Biacore), C3b captured by anti-C3d antibody, Fab as analyte; remark: listed apart in the source
[14] = target: T4, cynomolgus complement C3b protein; experiment: as above; remark: listed apart in the source
[15] = target: T3, human complement C3b protein; experiment: bead proximity assay, C3b-acceptor beads; competitor biotinylated fB(D24G/N260D); remark: listed apart in the source
Procedure: as §2, §1

[16] = target: T3, human complement C3b protein; experiment: solution equilibrium titration (SET), ECL detection, Fab; remark: listed apart in the source
[17] = target: T4, cynomolgus complement C3b protein; experiment: as above; remark: listed apart in the source
[18] = target: T3, human complement C3b protein; experiment: cell-based or functional assay; remark: listed apart in the source
[19] = target: T4, cynomolgus complement C3b protein; experiment: cell-based or functional assay; remark: listed apart in the source
human C3d [20] = target: T2, human C3d; experiment: cross reactivity, ELISA on C3d, anti-His detection; remark: listed apart in the source
human C5 [21] = target: T1, human C5; experiment: Direct ELISA at 2 ug/ml C5, 200 nM Fab

T1 sequence (P01031 19-673 limits assumed, chain 1 of 2): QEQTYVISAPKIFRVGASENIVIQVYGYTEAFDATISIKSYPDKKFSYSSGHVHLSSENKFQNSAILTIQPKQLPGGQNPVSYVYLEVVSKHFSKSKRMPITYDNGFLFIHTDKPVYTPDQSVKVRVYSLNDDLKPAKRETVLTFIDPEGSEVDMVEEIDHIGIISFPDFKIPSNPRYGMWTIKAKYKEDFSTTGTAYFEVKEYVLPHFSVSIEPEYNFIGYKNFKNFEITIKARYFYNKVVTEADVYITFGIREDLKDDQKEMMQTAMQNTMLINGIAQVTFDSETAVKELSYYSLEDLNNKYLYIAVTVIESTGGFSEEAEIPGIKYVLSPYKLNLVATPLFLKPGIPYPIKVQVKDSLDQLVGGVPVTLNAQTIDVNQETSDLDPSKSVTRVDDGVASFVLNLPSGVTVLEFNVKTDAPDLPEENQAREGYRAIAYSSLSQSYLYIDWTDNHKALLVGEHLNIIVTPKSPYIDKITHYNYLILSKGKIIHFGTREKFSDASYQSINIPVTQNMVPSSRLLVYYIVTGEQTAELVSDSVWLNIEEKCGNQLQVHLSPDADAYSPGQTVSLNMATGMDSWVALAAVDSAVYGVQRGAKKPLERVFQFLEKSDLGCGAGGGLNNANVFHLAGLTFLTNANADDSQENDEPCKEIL
T1 sequence (P01031 678-1676 limits assumed, chain 2 of 2): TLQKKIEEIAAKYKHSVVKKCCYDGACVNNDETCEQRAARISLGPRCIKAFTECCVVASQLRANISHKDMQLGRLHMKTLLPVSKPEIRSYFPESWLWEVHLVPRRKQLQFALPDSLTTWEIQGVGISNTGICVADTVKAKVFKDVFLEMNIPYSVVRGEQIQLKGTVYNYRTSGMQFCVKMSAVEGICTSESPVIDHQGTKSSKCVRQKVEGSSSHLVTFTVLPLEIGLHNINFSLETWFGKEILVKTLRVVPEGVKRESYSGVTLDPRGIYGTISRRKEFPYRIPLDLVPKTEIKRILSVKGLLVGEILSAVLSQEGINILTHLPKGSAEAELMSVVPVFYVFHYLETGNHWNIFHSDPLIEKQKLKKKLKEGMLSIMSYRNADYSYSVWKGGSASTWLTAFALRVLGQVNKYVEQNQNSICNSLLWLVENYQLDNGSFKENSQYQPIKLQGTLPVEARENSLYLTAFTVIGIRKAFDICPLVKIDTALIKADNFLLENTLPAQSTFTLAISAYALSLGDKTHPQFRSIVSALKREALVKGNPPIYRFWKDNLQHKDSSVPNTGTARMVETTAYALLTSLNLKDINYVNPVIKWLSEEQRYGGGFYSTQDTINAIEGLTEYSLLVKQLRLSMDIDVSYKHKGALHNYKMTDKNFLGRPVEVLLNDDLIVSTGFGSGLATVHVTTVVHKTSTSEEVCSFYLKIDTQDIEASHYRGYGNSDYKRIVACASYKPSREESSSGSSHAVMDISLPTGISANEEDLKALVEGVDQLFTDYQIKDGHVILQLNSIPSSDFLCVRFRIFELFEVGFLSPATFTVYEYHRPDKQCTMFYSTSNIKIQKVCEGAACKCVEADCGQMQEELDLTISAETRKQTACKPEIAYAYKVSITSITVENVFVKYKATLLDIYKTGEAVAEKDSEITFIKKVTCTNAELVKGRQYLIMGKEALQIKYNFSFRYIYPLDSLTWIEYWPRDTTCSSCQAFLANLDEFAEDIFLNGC
T2 sequence (P01024 1002-1303 limits assumed): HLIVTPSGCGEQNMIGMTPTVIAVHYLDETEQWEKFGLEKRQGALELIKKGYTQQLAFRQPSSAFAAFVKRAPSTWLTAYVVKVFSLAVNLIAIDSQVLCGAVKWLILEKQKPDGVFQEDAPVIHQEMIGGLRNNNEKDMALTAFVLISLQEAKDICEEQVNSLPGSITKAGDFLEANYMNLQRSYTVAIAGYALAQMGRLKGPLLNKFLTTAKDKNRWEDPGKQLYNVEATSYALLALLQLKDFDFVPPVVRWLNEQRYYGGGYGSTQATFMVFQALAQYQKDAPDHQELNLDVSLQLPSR
T3 sequence (P01024 23-667 P314L, chain 1 of 2): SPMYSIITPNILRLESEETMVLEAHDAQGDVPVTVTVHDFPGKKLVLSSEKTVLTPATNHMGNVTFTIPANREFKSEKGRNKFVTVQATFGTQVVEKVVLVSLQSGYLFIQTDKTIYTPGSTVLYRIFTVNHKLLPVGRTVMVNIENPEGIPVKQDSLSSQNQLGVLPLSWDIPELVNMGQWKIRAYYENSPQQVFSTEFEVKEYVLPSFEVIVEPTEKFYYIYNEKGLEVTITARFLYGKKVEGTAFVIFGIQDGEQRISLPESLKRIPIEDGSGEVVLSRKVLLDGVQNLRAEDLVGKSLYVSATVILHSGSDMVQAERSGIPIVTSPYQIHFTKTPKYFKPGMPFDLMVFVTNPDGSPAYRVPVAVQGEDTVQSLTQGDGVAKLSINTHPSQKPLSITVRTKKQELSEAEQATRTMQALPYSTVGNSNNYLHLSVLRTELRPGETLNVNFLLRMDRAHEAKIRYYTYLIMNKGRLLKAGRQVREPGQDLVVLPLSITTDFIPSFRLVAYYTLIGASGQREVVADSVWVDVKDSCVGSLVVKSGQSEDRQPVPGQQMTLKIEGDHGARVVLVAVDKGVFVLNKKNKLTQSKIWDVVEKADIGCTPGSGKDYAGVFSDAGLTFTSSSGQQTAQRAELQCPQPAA
T3 sequence (P01024 749-1663, chain 2 of 2): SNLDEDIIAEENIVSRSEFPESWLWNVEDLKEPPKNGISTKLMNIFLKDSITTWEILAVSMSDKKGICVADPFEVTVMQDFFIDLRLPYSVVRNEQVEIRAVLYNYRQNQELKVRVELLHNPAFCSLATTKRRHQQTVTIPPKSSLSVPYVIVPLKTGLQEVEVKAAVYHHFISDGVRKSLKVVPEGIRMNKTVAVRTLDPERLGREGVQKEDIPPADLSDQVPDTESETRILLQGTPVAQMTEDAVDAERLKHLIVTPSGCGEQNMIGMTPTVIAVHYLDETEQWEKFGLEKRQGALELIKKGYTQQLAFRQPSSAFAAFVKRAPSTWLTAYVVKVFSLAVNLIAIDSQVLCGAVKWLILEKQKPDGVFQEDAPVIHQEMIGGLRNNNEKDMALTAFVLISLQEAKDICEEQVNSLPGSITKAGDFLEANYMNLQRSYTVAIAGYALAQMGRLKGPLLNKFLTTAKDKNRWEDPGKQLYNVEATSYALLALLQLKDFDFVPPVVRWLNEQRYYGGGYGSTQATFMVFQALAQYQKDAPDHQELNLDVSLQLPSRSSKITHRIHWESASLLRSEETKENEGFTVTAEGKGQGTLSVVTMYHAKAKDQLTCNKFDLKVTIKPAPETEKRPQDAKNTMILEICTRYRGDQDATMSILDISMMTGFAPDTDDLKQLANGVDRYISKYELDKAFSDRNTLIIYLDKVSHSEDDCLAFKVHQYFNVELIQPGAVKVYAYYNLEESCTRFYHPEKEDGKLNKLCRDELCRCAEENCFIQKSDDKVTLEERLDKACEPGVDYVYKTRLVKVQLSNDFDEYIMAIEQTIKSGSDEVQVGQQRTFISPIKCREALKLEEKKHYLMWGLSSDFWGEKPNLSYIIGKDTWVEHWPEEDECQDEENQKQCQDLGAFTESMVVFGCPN

B1: MOR09398 Fab (Fab, V domains shown)
VH: QVQLVESGGGLVQPGGSLRLSCAASGFTFSSYWMTWVRQAPGKGLEWVSSIKIKPDGYAASVKGRFTISRDNSKNTLYLQMNSLRAEDTAVYYCARLFYQYFARMDYWGQGTLVTVSS
VL: DIQMTQSPSSLSASVGDRVTITCRASQDISNYLNWYQQKPGKAPKLLIYAASNLQSGVPSRFSGSGSGTDFTLTISSLQPEDFATYYCQQWDSFSPTFGQGTKVEIKR
notes: also called Fab 9398
binding result (human C5 [1]): no binding | binding result (human C3d [2]): no binding | Kd [3]: 0.003 nM | Kd [4]: 0.092 nM | IC50 [5]: 0.1 nM | IC50 [6]: 300 nM | C3b Dep (nM), human serum, IC50 [7]: 13 nM | HA (nM), 10% human serum, IC50 [7]: 45 nM | MAC Dep (nM), human serum, IC50 [7]: 1 nM | C3b Dep (nM), cyno serum, IC50 [8]: 56 nM | HA (nM), 10% cyno serum, IC50 [8]: 86 nM | MAC Dep (nM), cyno serum, IC50 [8]: 5 nM | Kd [9]: 0.004 nM | Kd [10]: 0.1 nM | IC50 [11]: 0.1 nM

B4: MOR9675 Fab format (Fab, V domains shown)
VH: EVQLVQSGAEVKKPGASVKVSCKASGYTFTGYYINWVRQAPGQGLEWMGIISPNQGTTGYAQKFQGRVTMTRDTSISTAYMELSSLRSEDTAVYYCARGNYDHLDYWGQGTLVTVSS
VL: DIQMTQSPSSLSASVGDRVTITCRASQGISNYLNWYQQKPGKAPKLLIYDASTLQSGVPSRFSGSGSGTDFTLTISSLQPEDFATYYCQQDWHTLPVTFGQGTKVEIK
IC50 [12]: 0.2 nM | Kd [13]: 0.121 nM | Kd [14]: 0.562 nM | IC50 [15]: 1 nM | Kd [16]: 0.052 nM | Kd [17]: 0.241 nM | C3a (nM), human, inhibition of C3a generation [18]: 97 nM | C3b Dep (nM), human serum, IC50 [18]: 11 nM | C5a (nM), human, inhibition of C5a generation [18]: 36 nM | HA (nM), 10% human serum, IC50 [18]: 60 nM | MAC Dep (nM), human serum, IC50 [18]: 3 nM | C3b Dep (nM), cyno serum, IC50 [19]: 43 nM | HA (nM), 10% cyno serum, IC50 [19]: 92 nM | MAC Dep (nM), cyno serum, IC50 [19]: 14 nM | binding result (human C3d [20]): no binding | binding result (human C5 [21]): no binding (tested: 200 nM)

The next lines start with the values.

IC50 [12]: 0.2 nM | Kd [13]: 0.0066 nM | Kd [14]: 0.042 nM | IC50 [15]: 0.15 nM | Kd [16]: 0.0015 nM | Kd [17]: 0.018 nM | C3a (nM), human, inhibition of C3a generation [18]: 90 nM | C3b Dep (nM), human serum, IC50 [18]: 24 nM | C5a (nM), human, inhibition of C5a generation [18]: 17 nM | HA (nM), 10% human serum, IC50 [18]: 62 nM | MAC Dep (nM), human serum, IC50 [18]: 4 nM | C3b Dep (nM), cyno serum, IC50 [19]: 43 nM | HA (nM), 10% cyno serum, IC50 [19]: 99 nM | MAC Dep (nM), cyno serum, IC50 [19]: 18 nM | binding result (human C3d [20]): no binding | binding result (human C5 [21]): no binding (tested: 200 nM)
B2: MOR9556 Fab format (Fab, V domains shown)
VH: B1 VH with Q1E
VL: DIQMTQSPSSLSASVGDRVTITCRASQDISNYLNWYQQKPGKAPKLLIYAASNLQSGVPSRFSGSGSGTDFTLTISSLQPEDFATYYCQQYDSYSPTFGQGTKVEIK

binding result (human C5 [1]): no binding | binding result (human C3d [2]): no binding | Kd [3]: 0.007 nM | Kd [4]: 0.089 nM | IC50 [5]: 0.1 nM | IC50 [6]: 300 nM | C3b Dep (nM), human serum, IC50 [7]: 13 nM | HA (nM), 10% human serum, IC50 [7]: 35 nM | MAC Dep (nM), human serum, IC50 [7]: 1 nM | C3b Dep (nM), cyno serum, IC50 [8]: 35 nM | HA (nM), 10% cyno serum, IC50 [8]: 59 nM | MAC Dep (nM), cyno serum, IC50 [8]: 7 nM | Kd [9]: 0.002 nM | Kd [10]: 0.12 nM | IC50 [11]: 0.1 nM
B3: MOR09397 Fab (Fab, V domains shown)
VH: B1 VH
VL: B1 VL with W91H, S93T, S95R
notes: also called Fab 9397
